Where two headings read alike, the source gives them in different places. Starred links: 1 amine or outer side, 2 acyl side, 3 side chain; linkers in the order of their positions; H or OH if unused. Non-standard residues stand in square brackets, D forms with d. Residues, ends and D or L forms follow the SMILES beside them. *: point of attachment. X4 = Cc1cc(F)cc(-c2cnc(NCCNC(=O)CCOCCOCCOCCOCCC(=O)*)c(-c3nc4ccc(Cl)cc4[nH]3)c2N2CCC(N)CC2)c1; Dolaproine = CO[C@@H]([C@@H]1CCCN1)[C@@H](C)C(=O)O; Dil = CC[C@H](C)[C@H](NC)[C@@H](CC(=O)O)OC; PABC = O=C(OCc1ccc(N[*:1])cc1)[*:2]; X2 = C[C@@H](N*)[C@@H](O)c1ccccc1; Cit = NC(=O)NCCC[C@H](N)C(=O)O; NMeV = CN[C@H](C(=O)O)C(C)C
What was measured:
[1] = test system: NCI-H524 (ATCC) human small cell lung cancer cells; format: cell-based
In short: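 NCI-H524 cells (5,000/well) were exposed 24 h after plating to SMDC for 2 h, 11-point two-fold series from 1 uM. After washout they grew a further 70 h. Proliferation was read by CellTiter-Glo luminescence, % inhibition taken vs untreated control, and IC50 fitted by four-parameter nonlinear regression.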

[2] = H524 tumor biodistribution model: tumor and plasma levels of SMDC and MMAE by LC/MS-MS; format: in vivo, female Athymic nude mice; settings: H524 tumor bearing nude mice
Description: In this example, 5 million H524 (Small Cell Lung Cancer) cells in 1:1 Matrigel: cold Media (RPMI1640) were injected into the subcutaneous (SQ) flank of female Athymic nude mice. Tumor volumes and body weights were measured twice a week. The tumors were allowed to grow until they reached 250-500 mm^3 in size before animals were randomized into groups (n=3/time point). Animals were injected intravenously with a SMDC of the present invention at a single dose of 500 nmol/kg. […] BLQ: Below Limit of Quantitation.

[3] = target: T1, human somatostatin receptor subtype 2 (Homo sapiens, UniProt P30874); test: Functional cAMP assay for SSTR2 agonists (HTRF) in CHO-K1 cells; format: cell-based; settings: CHO-K1 cells stably expressing human SST2, 20 min; read-out: hSST2 cAMP Avg EC50
T1 construct: expressed in transfected cells
In short: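 CHO-K1 cells stably expressing receptor, plated 4 days before assay, treated 20 min at 37° C. with compound (typically 0-10,000 nM final) plus IBMX and 1.6 μM NKH477 to raise cAMP. HTRF read, 665/620 nm ratio; cAMP from standard curve, EC50 fitted.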

SST2 = target: T2, SST2 (Homo sapiens, UniProt P30874); test: PathHunter CHO-K1 SST2 internalization assay; format: cell-based; settings: PathHunter CHO-K1 SST2, 90 min; read-out: Internalization EC50
T2 construct: host or cells: PathHunter CHO-K1 SST2 cells
In short: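 PathHunter CHO-K1 SST2 cells, seeded and grown 48 h, were exposed to 11-point 1:3 dilutions of SMDC (top final 10 uM) for 90 min at 37 C, 5% CO2. Beta-Glo luminescence was read after 60 min at room temperature. Background-corrected duplicate means were fitted by four-parameter nonlinear regression to give IC50.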

[4] = MMAE level 1 h after 500 nmol/kg IV of the conjugate
[5] = MMAE level 4 h after 500 nmol/kg IV of the conjugate
[6] = MMAE level 24 h after 500 nmol/kg IV of the conjugate
[7] = MMAE level 72 h after 500 nmol/kg IV of the conjugate
[8] = female, Athymic nude, mouse, plasma, 4 h after 500 nmol/kg IV, read-out: Conjugate Plasma
[9] = female, Athymic nude, mouse, plasma, 24 h after 500 nmol/kg IV, read-out: Conjugate Plasma
[10] = female, Athymic nude, mouse, 4 h after 500 nmol/kg IV, read-out: Conjugate Tumor
[11] = MMAE level 168 h after 500 nmol/kg IV of the conjugate
[12] = MMAE level 240 h after 500 nmol/kg IV of the conjugate

T2 sequence (P30874 whole entry): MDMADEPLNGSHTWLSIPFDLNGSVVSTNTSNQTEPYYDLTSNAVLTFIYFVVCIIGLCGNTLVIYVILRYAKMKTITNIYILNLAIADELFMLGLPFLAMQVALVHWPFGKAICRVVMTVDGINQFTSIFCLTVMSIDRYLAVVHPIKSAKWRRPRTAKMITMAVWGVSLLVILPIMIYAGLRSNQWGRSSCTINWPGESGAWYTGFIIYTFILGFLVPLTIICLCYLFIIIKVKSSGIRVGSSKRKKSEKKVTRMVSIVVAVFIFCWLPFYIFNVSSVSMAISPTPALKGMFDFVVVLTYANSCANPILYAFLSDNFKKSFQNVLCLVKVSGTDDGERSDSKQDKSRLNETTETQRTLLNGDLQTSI
T1 sequence (P30874 whole entry): as above

## CC[C@H](C)[C@@H]([C@@H](CC(=O)N1CCC[C@H]1[C@H](OC)[C@@H](C)C(=O)N[C@H](C)[C@@H](O)c1ccccc1)OC)N(C)C(=O)[C@@H](NC(=O)[C@H](C(C)C)N(C)C(=O)OCc1ccc(NC(=O)[C@H](C)NC(=O)[C@@H](NC(=O)CCOCCC(=O)NCCNc2ncc(-c3cc(C)cc(F)c3)c(N3CCC(N)CC3)c2-c2nc3ccc(Cl)cc3[nH]2)C(C)C)c(O[C@@H]2O[C@H](C(=O)O)[C@@H](O)[C@H](O)[C@H]2O)c1)C(C)C [Compound 68]
[1]; 2 h treatment, washout, additional 70 h, read-out: H524 EC50
  EC50: 11.2 nM
[2]; 1 h after 500 nmol/kg IV, read-out: Conjugate Plasma
  level at time molar at 24 h: 1388 nM
[2]; 1 h after 500 nmol/kg IV, read-out: Conjugate Tumor
  level at time molar at 24 h: 212 nM
[2]; 4 h after 500 nmol/kg IV, read-out: Conjugate Plasma
  level at time molar at 24 h: 446 nM
[2]; 4 h after 500 nmol/kg IV, read-out: Conjugate Tumor
  level at time molar at 24 h: 91.3 nM
[2]; 24 h after 500 nmol/kg IV, read-out: Conjugate Plasma
  level at time molar at 24 h: 36.9 nM
[2]; 24 h after 500 nmol/kg IV, read-out: Conjugate Tumor
  level at time molar at 24 h: 15.5 nM
[2]; 72 h after 500 nmol/kg IV
  Conjugate Tumor (nM): BLQ
[2]; 72 h after 500 nmol/kg IV, read-out: Conjugate Plasma
  level at time molar at 24 h: 0.68 nM
[2]; [4]
  MMAE Plasma: 8.82 nM
  MMAE Tumor: 17.5 nM
[2]; [5]
  MMAE Plasma: 1.94 nM
  MMAE Tumor: 197 nM
[2]; [6]
  MMAE Plasma: 0.416 nM
  MMAE Tumor: 299 nM
[2]; [7]
  MMAE Plasma (nM): BLQ
  MMAE Tumor: 231 nM

## CC[C@H](C)[C@@H]([C@@H](CC(=O)N1CCC[C@H]1[C@H](OC)[C@@H](C)C(=O)N[C@H](C)[C@@H](O)c1ccccc1)OC)N(C)C(=O)[C@@H](NC(=O)[C@H](C(C)C)N(C)C(=O)OCc1ccc(NC(=O)[C@H](CCCNC(N)=O)NC(=O)[C@@H](NC(=O)[C@H](CCC(=O)O)NC(=O)CCOCCC(=O)NCCNc2ncc(-c3cc(C)cc(F)c3)c(N3CCC(N)CC3)c2-c2nc3ccc(Cl)cc3[nH]2)C(C)C)cc1C(=O)NCCN)C(C)C [Compound 49]
[1]; 2 h
  EC50: 17.3 nM
[3]
  EC50: 0.14 nM
SST2
  EC50: 5.5 nM
[2]; 24 h after 500 nmol/kg IV
  Conjugate Tumor (nM): BLQ
[2]; 72 h after 500 nmol/kg IV
  Conjugate Plasma (nM): BLQ
  Conjugate Tumor (nM): BLQ
[2]; [4]
  MMAE Plasma: 9.2 nM
  MMAE Tumor: 38 nM
[2]; [5]
  MMAE Plasma: 1.36 nM
  MMAE Tumor: 65.7 nM
[2]; [6]
  MMAE Plasma (nM): BLQ
  MMAE Tumor: 83.5 nM
[2]; [7]
  MMAE Plasma (nM): BLQ
  MMAE Tumor: 62.7 nM
[2]; female, Athymic nude, mouse, plasma, 1 h after 500 nmol/kg IV, read-out: Conjugate Plasma
  level at time molar at 1 h: 354 nM
[2]; [8]
  level at time molar at 4 h: 41.6 nM
[2]; [9]
  level at time molar at 24 h: 0.783 nM
[2]; female, Athymic nude, mouse, 1 h after 500 nmol/kg IV, read-out: Conjugate Tumor
  level at time molar at 1 h: 88.1 nM
[2]; [10]
  level at time molar at 4 h: 46.5 nM

## CC[C@H](C)[C@@H]([C@@H](CC(=O)N1CCC[C@H]1[C@H](OC)[C@@H](C)C(=O)N[C@H](C)[C@@H](O)c1ccccc1)OC)N(C)C(=O)[C@@H](NC(=O)[C@H](C(C)C)N(C)C(=O)OCc1ccc(NC(=O)[C@H](CCCNC(N)=O)NC(=O)[C@@H](NC(=O)[C@@H](CS(=O)(=O)O)NC(=O)CCOCCC(=O)NCCNc2ncc(-c3cc(C)cc(F)c3)c(N3CCC(N)CC3)c2-c2nc3ccc(Cl)cc3[nH]2)C(C)C)cc1C(=O)NCCN)C(C)C [Compound 107]
[1]; 2 h
  EC50: 4 nM
[3]
  EC50: 0.15 nM
SST2
  EC50: 2.2 nM
[2]; 72 h after 500 nmol/kg IV
  Conjugate Plasma (nM): BLQ
[2]; 168 h after 500 nmol/kg IV
  Conjugate Plasma (nM): BLQ
  Conjugate Tumor (nM): BLQ
[2]; 240 h after 500 nmol/kg IV
  Conjugate Plasma (nM): BLQ
  Conjugate Tumor (nM): BLQ
[2]; [5]
  MMAE Plasma: 2.26 nM
  MMAE Tumor: 123 nM
[2]; [6]
  MMAE Plasma (nM): BLQ
  MMAE Tumor: 242 nM
[2]; [7]
  MMAE Plasma (nM): BLQ
  MMAE Tumor: 141 nM
[2]; [11]
  MMAE Plasma (nM): BLQ
  MMAE Tumor: 90.1 nM
[2]; [12]
  MMAE Plasma (nM): BLQ
  MMAE Tumor: 25.2 nM
[2]; [8]
  level at time molar at 4 h: 83.1 nM
[2]; [9]
  level at time molar at 24 h: 0.441 nM
[2]; [10]
  level at time molar at 4 h: 94.2 nM
[2]; female, Athymic nude, mouse, 24 h after 500 nmol/kg IV, read-out: Conjugate Tumor
  level at time molar at 24 h: 9.26 nM
[2]; female, Athymic nude, mouse, 72 h after 500 nmol/kg IV, read-out: Conjugate Tumor
  level at time molar at 72 h: 1.64 nM

## CC[C@H](C)[C@@H]([C@@H](CC(=O)N1CCC[C@H]1[C@H](OC)[C@@H](C)C(=O)N[C@H](C)[C@@H](O)c1ccccc1)OC)N(C)C(=O)[C@@H](NC(=O)[C@H](C(C)C)N(C)C(=O)OCc1ccc(NC(=O)[C@H](CCCNC(N)=O)NC(=O)[C@@H](NC(=O)[C@H](CCC(N)=O)NC(=O)[C@H](CCC(=O)O)NC(=O)CCOCCOCCOCCOCCC(=O)NCCNc2ncc(-c3cc(C)cc(F)c3)c(N3CCC(N)CC3)c2-c2nc3ccc(Cl)cc3[nH]2)C(C)C)cc1)C(C)C [Compound 119] (X4-EQV[Cit][PABC][NMeV]V[Dil][Dolaproine]-X2)
[1]; 2 h
  EC50: 16 nM
[3]
  EC50: 0.14 nM
SST2
  EC50: 5.4 nM

## CC[C@H](C)[C@@H]([C@@H](CC(=O)N1CCC[C@H]1[C@H](OC)[C@@H](C)C(=O)N[C@H](C)[C@@H](O)c1ccccc1)OC)N(C)C(=O)[C@@H](NC(=O)[C@H](C(C)C)N(C)C(=O)OCc1ccc(NC(=O)[C@H](CCCNC(N)=O)NC(=O)[C@@H](NC(=O)[C@H](CCC(N)=O)NC(=O)CCOCCC(=O)NCCNc2ncc(-c3cc(C)cc(F)c3)c(N3CCC(N)CC3)c2-c2nc3ccc(Cl)cc3[nH]2)C(C)C)c(O[C@@H]2O[C@H](C(=O)O)[C@@H](O)[C@H](O)[C@H]2O)c1)C(C)C [Compound 151]
[1]; 2 h
  EC50: 8.9 nM
[3]
  EC50: 0.28 nM
SST2
  EC50: 2.2 nM

## CC[C@H](C)[C@@H]([C@@H](CC(=O)N1CCC[C@H]1[C@H](OC)[C@@H](C)C(=O)N[C@@H](Cc1ccccc1)C(=O)O)OC)N(C)C(=O)[C@@H](NC(=O)[C@H](C(C)C)N(C)C(=O)CCOCCOCCOCCOCCC(=O)NCCNc1ncc(-c2cc(C)cc(F)c2)c(N2CCC(N)CC2)c1-c1nc2ccc(Cl)cc2[nH]1)C(C)C [Compound 11]
[1]; 2 h
  EC50: 105 nM
[3]
  EC50: 0.086 nM
SST2
  EC50: 13.4 nM

Reference: patent US12134610B2, “Somatostatin subtype-2 receptor (SST2R) targeted therapeutics and uses thereof” (priority 2022, dated 2024)
